Test results: patent US20220242962A1 (APTEVO RESEARCH AND DEVELOPMENT, published 2022)
Changes are numbered by the printed parent chain.

T1: Full-length Cyno OX40 (cynomolgus monkey, UniProt P43489 29-277 (human entry))
T1 construct: on CHO-K1SV cells; also called OXF004; cynomolgus OX40
T1 chain: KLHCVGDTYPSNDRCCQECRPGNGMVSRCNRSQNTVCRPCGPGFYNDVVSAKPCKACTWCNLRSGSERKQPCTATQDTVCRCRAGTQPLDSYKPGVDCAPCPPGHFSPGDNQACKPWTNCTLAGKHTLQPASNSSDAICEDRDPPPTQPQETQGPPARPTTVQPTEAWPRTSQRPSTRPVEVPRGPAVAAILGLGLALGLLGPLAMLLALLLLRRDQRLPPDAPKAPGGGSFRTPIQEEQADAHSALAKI

T2: Fc gamma receptor RIIA H167 (human, UniProt P12318 36-218)
T2 construct: soluble SPR analyte
T2 sequence (looked up): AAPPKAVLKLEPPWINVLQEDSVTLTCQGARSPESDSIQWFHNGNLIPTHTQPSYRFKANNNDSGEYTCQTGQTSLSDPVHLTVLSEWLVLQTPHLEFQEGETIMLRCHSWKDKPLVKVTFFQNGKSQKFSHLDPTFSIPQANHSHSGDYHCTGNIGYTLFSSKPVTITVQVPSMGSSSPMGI

T3: Fc gamma receptor RIIB/C (human, UniProt P31994 46-217)
T3 construct: soluble SPR analyte
T3 sequence (looked up): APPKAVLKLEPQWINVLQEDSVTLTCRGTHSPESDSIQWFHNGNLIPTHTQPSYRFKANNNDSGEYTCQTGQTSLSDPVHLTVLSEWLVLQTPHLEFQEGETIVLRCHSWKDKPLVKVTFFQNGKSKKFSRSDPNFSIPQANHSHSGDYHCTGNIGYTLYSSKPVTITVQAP

T4: Fc gamma receptor RIIA R167 (human, UniProt P12318 36-218)
T4 construct: soluble SPR analyte
T4 sequence (looked up): T2 sequence (looked up) with H132R

T5: Cyno 4-1BB ECD-AFH (cynomolgus monkey)
T5 construct: entry includes the tags; also called FOB004; Cyno CD137 ECD-avi-flag-his
T5 chain: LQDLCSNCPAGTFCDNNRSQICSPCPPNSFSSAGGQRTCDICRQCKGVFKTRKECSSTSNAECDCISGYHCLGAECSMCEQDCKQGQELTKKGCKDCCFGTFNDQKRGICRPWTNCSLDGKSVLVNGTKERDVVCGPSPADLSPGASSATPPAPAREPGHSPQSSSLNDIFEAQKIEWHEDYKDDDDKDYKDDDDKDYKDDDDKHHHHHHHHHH

T6: Full-length Cyno 4-1BB (cynomolgus monkey, UniProt Q07011 24-255 (human entry))
T6 construct: on Jurkat or CHO cells; also called FOB006; cynomolgus 4-1BB
T6 chain: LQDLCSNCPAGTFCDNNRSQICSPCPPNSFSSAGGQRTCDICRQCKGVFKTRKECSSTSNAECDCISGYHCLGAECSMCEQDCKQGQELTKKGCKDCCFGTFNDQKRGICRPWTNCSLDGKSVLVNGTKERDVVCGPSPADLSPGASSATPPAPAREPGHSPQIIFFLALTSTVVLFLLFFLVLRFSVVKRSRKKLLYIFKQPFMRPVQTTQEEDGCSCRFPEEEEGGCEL

B1: FXX01115 (bispecific antibody)
chain: EVQLVQSGAEVKKPGASVKVSCKASGYTFTSYWMNWVRQAPGQGLEWMGNIYPSGGSTNYAQKFQGRVTMTVDTSTSTVYMELSSLRSEDTAVYYCASFSDGYYAYAMDYWGQGTLVTVSSGGGGSGGGGSGGGGSGGGGSEIVMTQSPATLSLSPGERATLSCRASQSVSSYLNWYQQKPGQAPRLLIYYASRRHTGIPARFSGSGSGTDFTLTISSLQPEDFAVYYCQQGYNLPYTFGQGTKVEIKEPKSSDKTHTCPPCPAPPAAAPSVFLFPPKPKDTLMISRTPEVTCVVVDVSHEDPEVKFNWYVDGVEVHNAKTKPREEQYNSTYRVVSVLTVLHQDWLNGKEYKCAVSNKALPAPIEKTISKAKGQPREPQVYTLPPSRDELTKNQVSLTCLVKGFYPSDIAVEWESNGQPENNYKTTPPVLDSDGSFFLYSKLTVDKSRWQQGNVFSCSVMHEALHNHYTQKSLSLSPGGGGSPSSYVLTQPPSVSVAPGQTARITCGGNNIGSKSVNWFQQKPGQAPVLVVYDDSGRPSGVPNRFSGSTSGNTATLTISRVEAGDEADYYCQVWDSSSDHVVFGGGTKLTVLGGGGSGGGGSGGGGSGGGGSQVQLVESGGGVVQPGRSLRLSCAASGFTLSYYGMHWVRQAPGKGLEWVAAISHDGSDKYYADSVKGRFTISRDNSKNRLYLQMNSLRAEDTAVYYCSNDQFDPWGQGTLVTVSSR
notes: ADAPTIR anti-4-1BB x anti-OX40, pI variant; PAA (del) Fc
B2: FXX01119 (bispecific antibody)
chain: B1 chain with Q500K
notes: as for B1

Assays:
Full-length Cyno OX40 = target: T1, Full-length Cyno OX40; assay: flow cytometry on CHOK1SV cells transfected with cynomolgus OX40, goat anti-human Fc secondary antibody, MFI (Mean)
Description: (§1) Serial dilutions of ADAPTIR™ constructs were incubated with transfected target cells and subsequently labelled with a fluorescently-conjugated goat-a-human Fc secondary antibody. […] (See Example 25.)

[1] = target: T2, Fc gamma receptor RIIA H167; assay: SPR, construct immobilized, receptor injected at 2 uM
Description: (§2) Fcγ receptor binding to bispecific proteins was measured by Surface Plasmon Resonance on a Biacore 8K instrument at room temperature. Bispecific proteins with modified Fc regions to reduce binding to Fcγ receptors were directly immobilized on the surface of a CM5 sensor chip to a surface density of 4000 RU. A bispecific ADAPTIR™ protein with a wild type Fc was similarly immobilized to the surface as a positive control and used as a comparator to evaluate the reduction in binding resulting from changes incorporated into the Fc region amino acid sequence. Fcγ receptors (purchased from R&D Systems) were diluted to either 100 nM (FcγRI) or 2 μM (all other Fcγ receptors) in HBS-EP+ buffer before injecting over the surface of the prepared sensor chip at 30 μL/min for 60 seconds. Maximum RU values during association phase of each injection were used to compare the extent of binding of the modified Fc to wild type value and are reported in Table 17 below.

Fc gamma receptor RIIB/C = target: T3, Fc gamma receptor RIIB/C; assay: as above
Description: as §2

[2] = target: T4, Fc gamma receptor RIIA R167; assay: as above
Description: as §2

Cyno 4-1BB ECD-AFH = target: T5, Cyno 4-1BB ECD-AFH; assay: SPR (Biacore 8K), construct captured, monovalent ECD
Full-length Cyno 4-1BB = target: T6, Full-length Cyno 4-1BB; assay: flow cytometry on Jurkat cells transfected with cynomolgus 4-1BB, goat anti-human Fc secondary antibody, MFI (Mean)
Description: as §1

| EC50 (read off the curve) (Full-length Cyno OX40) [nM] | Max RU value during association [1] [RU] | Max RU value during association (Fc gamma receptor RIIB/C) [RU] | Max RU value during association [2] [RU] | Kd (Cyno 4-1BB ECD-AFH) [nM] | koff (Cyno 4-1BB ECD-AFH) [s⁻¹] | kon (Cyno 4-1BB ECD-AFH) [M⁻¹ s⁻¹] | EC50 (read off the curve) (Full-length Cyno 4-1BB) [nM] | Binder |
| --- | --- | --- | --- | --- | --- | --- | --- | --- |
| 1 to 2 | 12 | 19 | 89 | 72 | 0.0074 | 100000 | ~0.3 | B1 |
| 1 to 2 | 14 | 22 | 103 | 79 | 0.0075 | 95000 | ~0.3 | B2 |
